Drawing on patent US20250339569A1 (3B PHARMACEUTICALS, published 2025), this text covers pKd and pKD for three molecules.

Starred links: 1 amine or outer side, 2 acyl side, 3 side chain; linkers in the order of their positions; H or OH if unused. Positions of bridges follow the written chain, without caps; N, C: chain ends. Non-standard residues stand in square brackets, D forms with d. Primed or numbered codes have the meaning given here. *: point of attachment. Aph(SaPr)(3) = 4-amino-L-phenylalanine with ring amino acylated by 3-sulfamoylpropanoic acid, NS(=O)(=O)CCC(=O)Nc1ccc(C[C@H](N[*:1])C(=O)[*:2])cc1; 111In‑DOTA = O=C([O-])CN1CCN(CC(=O)[O-])CCN(CC(=O)*)CCN(CC(=O)[O-])CC1.[111In+3]; Phe(3-NHCO(CH2)3SO2NH2) = N[C@@H](Cc1cccc(NC(=O)CCCS(N)(=O)=O)c1)C(=O)O; DOTA = O=C(O)CN1CCN(CC(=O)O)CCN(CC(=O)*)CCN(CC(=O)O)CC1; PPAc = 4-carboxymethyl piperazine linker; mXylylene = c1cc(C[*:1])cc(C[*:2])c1; Dap = NC[C@H](N)C(=O)O

Test [1] has as its target T1, canine carbonic anhydrase 9 (CAIX) (dog).
T1 construct: Expressed on transfected CHO cells (CHO-dogCA9); also called dgCAIX; dog CAIX
In words: radioligand saturation binding on CHO-dgCAIX cells, 8 h at 37 °C, experiment iii.
T1 sequence (chain, as listed by the source limits assumed): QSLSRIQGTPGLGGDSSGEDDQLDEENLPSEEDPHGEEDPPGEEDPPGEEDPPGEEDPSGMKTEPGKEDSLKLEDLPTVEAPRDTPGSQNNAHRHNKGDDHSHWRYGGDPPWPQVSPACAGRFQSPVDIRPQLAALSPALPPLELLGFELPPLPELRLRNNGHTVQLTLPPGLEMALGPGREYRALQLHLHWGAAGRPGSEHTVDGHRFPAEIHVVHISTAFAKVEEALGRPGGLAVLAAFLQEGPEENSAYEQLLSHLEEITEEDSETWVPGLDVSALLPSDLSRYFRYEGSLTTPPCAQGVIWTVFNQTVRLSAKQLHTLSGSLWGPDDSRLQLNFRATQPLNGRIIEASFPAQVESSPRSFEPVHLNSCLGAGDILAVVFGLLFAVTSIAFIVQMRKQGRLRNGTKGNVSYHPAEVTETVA
Protocol: (§1) The radioligand saturation binding on CHO-huCAIX and dgCAIX was determined as follows. […] To determine total binding, 700 μL of binding medium and 100 μL of the radioligand dilutions were added to the wells in triplicates. […] The plates were incubated for 8 h at 37° C. under standard cell culture conditions (5% CO2). At the end of the incubation time the plates were placed on ice while aspirating the radioligand solutions. Aliquots of the 20 nM supernatants were transferred to HPLC vials for analysis of radioligand stability over the incubation time. Subsequently, the cells were washed with ice-cold PBS (0.5 mL, 1 mL, 1 mL). 300 μL of RIPA buffer containing PIC was added to each well and the plates were placed on a shaker for 10 min at ambient temperature. 200 μL of the cell lysate of each well was transferred to gamma-counting tubes. Their associated radioactivity was counted using a gamma counter and normalized to the measured protein concentration of each well (see chapter 6.3.7 BCA protein assay). An aliquot of each radioligand dilution was included in the gamma counter measurements to allow for determination of the actual radioligand concentrations in the dilution series.

The target of test [2] is human carbonic anhydrase IX (CAIX) (human, UniProt Q16790 38-459). In words: radioligand binding, 111In-labeled compound, CHO cells with human CAIX; pKD category A: >8.0.
Protocol: (§2) CHO-VGT cells were transfected with the human, dog, and mouse CAIX (InSCREENex GmbH) and cultured in Ham's F-12 medium (Sigma-Aldrich #N4888) supplemented with 10% fetal bovine serum (FCS), 2 mM L-glutamine, 100 U/mL Penicillin, and 0.1 mg/mL streptomycin. […] Cell concentrations were adjusted to 3×10⁵ mL⁻¹, and 1.000 μL of the suspension per well were dispensed into flat-clear-bottom 24 well plates.
(§3) Approximately 24 hours after re-seeding, the medium was aspirated and the cells were washed once with 1000 μL assay medium (Ham's medium without additives). To determine total binding, 700 μL of assay medium and 100 μL of the radioligand dilutions were added to the wells in triplicates. To determine non-specific binding, 600 μL of binding medium, 100 μL of the radioligand dilutions and 100 μL of a blocking solution containing 8 μM non-labeled compound were added to the wells in triplicates. […] An aliquot of each radioligand dilution was included in the gamma counter measurements to allow for determination of their actual concentrations via their known specific activity.
Test [3] concerns the target T2, canine carbonic anhydrase 9 (CAIX) (dog).
T2 construct: On transfected CHO-VGT cells; also called dog CAIX
In words: radioligand binding, 111In-labeled compound, CHO cells with dog CAIX; pKD category A: >8.0.
T2 sequence (chain, as listed by the source limits assumed): as above
Protocol: as §2, §3

Test [4] addresses T3, murine carbonic anhydrase 9 (CAIX) (mouse, UniProt Q8VHB5 32-437).
T3 construct: On transfected CHO-VGT cells; also called mouse CAIX
The test is described as follows: radioligand binding, 111In-labeled compound, CHO cells with mouse CAIX; pKD category A: >8.0.
Protocol: as §2, §3

Test [5] addresses T1, canine carbonic anhydrase 9 (CAIX). The test is described as follows: radioligand saturation binding on CHO-dgCAIX cells, 8 h at 37 °C, experiment ii.
Protocol: as §1

T3 sequence (Q8VHB5 32-437 limits assumed): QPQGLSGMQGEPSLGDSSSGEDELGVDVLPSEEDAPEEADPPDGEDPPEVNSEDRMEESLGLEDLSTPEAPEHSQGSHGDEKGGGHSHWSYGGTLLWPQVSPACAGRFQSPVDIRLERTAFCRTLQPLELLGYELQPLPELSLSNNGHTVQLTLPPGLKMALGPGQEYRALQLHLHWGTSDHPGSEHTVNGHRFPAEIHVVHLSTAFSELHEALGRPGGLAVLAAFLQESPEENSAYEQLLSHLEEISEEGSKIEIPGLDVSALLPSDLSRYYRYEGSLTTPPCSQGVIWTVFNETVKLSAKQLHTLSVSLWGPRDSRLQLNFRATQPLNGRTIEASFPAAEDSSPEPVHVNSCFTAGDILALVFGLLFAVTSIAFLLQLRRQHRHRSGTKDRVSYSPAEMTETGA

B1: [^111In]In-DPI-4501 (peptide)
peptide: {DOTA}-QCE[dP]D[Aph(SaPr)(3)]LTWSC-NH2
modifications: linker 2-11 via mXylylene; also: 111In complexed by DOTA
notes: Cyclic peptide with chelator DOTA complexing In-111; X stands for the non-natural residue Aph(SaPr); also called ^111In-DOTA-Q-[C(3MeBn)-EPD-Aph(SaPr)-LTWSC]-NH2; ^111In-3BP-4501
B1: in test [1], the pKd is 9.6 -log10(M).
As to {111In‑DOTA}-ECE[dP]D[Phe(3-NHCO(CH2)3SO2NH2)]LTW[Dap]C-NH2 (lactam 1-10; linker 2-11 via mXylylene, also called 3BP-4503 (111In-labeled)) [111In-3BP-4503], the pKD in test [2], in test [3] and in test [4] was over 8 pkd throughout.

B2: [^111In]In-DPI-4452 (peptide)
peptide: {DOTA-PPAc}-QCE[dP]D[Phe(3-NHCO(CH2)3SO2NH2)]LTWSC-NH2
modifications: linker 2-11 via mXylylene; also: 111In complexed in DOTA
notes: Cyclic peptide with chelator DOTA complexing In-111; X stands for the non-natural residue Af3(Cpsu); also called ^111In-DOTA-PPAc-Q-[C(3MeBn)-EPD-Af3(Cpsu)-LTWSC]-NH2; ^111In-3BP-4452
For B2, the pKd in test [5] was 9.5 -log10(M).
